The target of this assay is recombinant influenza HA3-protein (from H3N2, Wyoming, March 2003, Sino Biological Inc.) (influenza H3N2, Wyoming, March 2003). In words: SPR imaging (IBIS MX96), antibody captured on anti-human-IgG chip, HA3 injected at 1 µg/ml, global 1:1 fit.

Here are results for two molecules from patent publication US20130331552A1.

B1: AT10-004 mutant B (antibody, V domains shown)
VH: RASQSVSRYLA
VL: RASQSVSRYLA
Turning to B1, the Kd (in general, the concentration at which binding is half-saturated) came out at 0.05 nM; the dissociation rate constant (koff) (in general, the rate constant with which the complex falls apart) was 1e-06 s⁻¹; the kon – broadly, a measure of how fast the partners come together – turned out to be 19000 M⁻¹ s⁻¹.

B2: AT10-004 mutant C (antibody, V domains shown)
VH: RASQSVSRFLA
VL: RASQSVSRFLA
In the case of B2, the Kd was found to be 0.06 nM, the koff worked out at 1e-06 s⁻¹ and the kon worked out at 17000 M⁻¹ s⁻¹.
